{
  "source": "patent US20240024520A1",
  "about": "“AUTONOMOUS KNOB DOMAIN PEPTIDES” (UCB BIOPHARMA SRL, priority 2020, published 2024)",
  "data": [
    {"biological_target": "C5 (Homo sapiens, UniProt P01031)", "sequence (P01031 19-1676)": "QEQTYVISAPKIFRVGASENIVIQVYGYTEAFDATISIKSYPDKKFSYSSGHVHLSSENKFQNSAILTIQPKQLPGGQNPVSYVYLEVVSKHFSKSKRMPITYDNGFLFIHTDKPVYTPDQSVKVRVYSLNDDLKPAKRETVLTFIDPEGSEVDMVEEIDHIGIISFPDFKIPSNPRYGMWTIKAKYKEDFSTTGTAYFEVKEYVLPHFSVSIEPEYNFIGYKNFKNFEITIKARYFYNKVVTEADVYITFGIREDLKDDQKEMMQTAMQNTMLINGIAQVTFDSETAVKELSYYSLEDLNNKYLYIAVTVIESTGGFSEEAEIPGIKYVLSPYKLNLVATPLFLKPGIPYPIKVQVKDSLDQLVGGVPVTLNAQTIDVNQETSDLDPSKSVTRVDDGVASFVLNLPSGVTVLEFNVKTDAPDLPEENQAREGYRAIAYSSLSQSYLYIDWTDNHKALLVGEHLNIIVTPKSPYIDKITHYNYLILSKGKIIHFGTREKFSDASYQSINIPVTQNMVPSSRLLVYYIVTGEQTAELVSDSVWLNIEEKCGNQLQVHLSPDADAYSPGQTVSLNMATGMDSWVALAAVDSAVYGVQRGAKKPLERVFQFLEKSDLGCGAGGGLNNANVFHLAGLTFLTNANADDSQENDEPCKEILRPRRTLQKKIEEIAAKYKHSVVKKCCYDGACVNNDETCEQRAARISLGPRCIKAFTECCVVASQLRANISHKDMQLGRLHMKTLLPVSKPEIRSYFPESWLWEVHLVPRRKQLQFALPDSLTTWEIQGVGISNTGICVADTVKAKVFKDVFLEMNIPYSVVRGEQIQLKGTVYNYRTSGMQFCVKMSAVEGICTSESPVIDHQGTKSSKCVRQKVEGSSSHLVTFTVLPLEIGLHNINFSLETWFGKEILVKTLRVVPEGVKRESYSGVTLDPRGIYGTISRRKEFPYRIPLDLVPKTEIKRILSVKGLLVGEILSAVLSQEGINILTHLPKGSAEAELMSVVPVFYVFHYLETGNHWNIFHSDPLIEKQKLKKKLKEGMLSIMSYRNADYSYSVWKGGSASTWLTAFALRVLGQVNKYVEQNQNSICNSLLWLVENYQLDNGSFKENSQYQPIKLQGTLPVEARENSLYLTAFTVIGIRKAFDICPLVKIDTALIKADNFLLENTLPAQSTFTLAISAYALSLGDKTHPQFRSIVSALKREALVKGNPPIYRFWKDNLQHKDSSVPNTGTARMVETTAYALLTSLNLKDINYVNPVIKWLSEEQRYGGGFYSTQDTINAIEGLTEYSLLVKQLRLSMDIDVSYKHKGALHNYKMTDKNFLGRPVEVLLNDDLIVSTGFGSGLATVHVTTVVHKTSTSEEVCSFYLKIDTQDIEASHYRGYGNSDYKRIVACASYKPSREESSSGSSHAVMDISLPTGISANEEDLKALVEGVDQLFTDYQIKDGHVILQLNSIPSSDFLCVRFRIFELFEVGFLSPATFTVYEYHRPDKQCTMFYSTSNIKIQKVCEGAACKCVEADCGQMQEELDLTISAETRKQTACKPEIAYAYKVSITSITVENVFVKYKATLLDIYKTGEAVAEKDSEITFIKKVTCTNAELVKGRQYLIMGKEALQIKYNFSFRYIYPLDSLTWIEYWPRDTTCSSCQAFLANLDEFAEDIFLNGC", "assay": "Monoclonal phage screening ELISA, human C5", "format": "binding", "conditions": "anti-C5 ultralong CDR-H3; binder = OD>0.2 AU", "method": "(§1) For the C5 libraries, a single round of enrichment was performed with either human or rat C5 protein. […] Phage were blocked for 30 minutes. Biotinylated antigen was added to the blocked phage at a concentration of 100 nM and incubated at room temperature with mixing.\n(§2) Colonies were picked into a 96-well culture plate containing selective medium 2TY supplemented with 1% Glucose and 100 μg/ml Carbenicillin and was incubated at 37° C. until wells reached mid-log phase of growth prior to addition of M13K07 helper phage. The block was incubated without shaking for 1 hour to achieve infection and phage production using continued culture in selective media supplemented with 50 μg/ml Kanamycin and 100 μg/ml Carbenicillin.\n(§3) Binding to antigen was assessed by monoclonal phage ELISA, 96-well flat bottom Nunc MaxiSorp plates (Thermofisher) were coated with a 2.5 μg/ml solution of human, mouse, or rat serum albumin, human C5 or mouse C5 diluted with PBS, and left overnight at 4° C. Negative control plate and Anti-myc tag plate were also prepared.\n(§4) Monoclonal phage rescue supernatants were blocked with an equal volume of a 2% milk (w/v) in PBS, for serum albumin proteins, or 2% BSA and 2% milk (w/v) in PBS solution. The coating solution was removed from coated Nunc plates and each plate was blocked with 1% BSA in PBS (for C5 libraries) or 1% milk powder (for albumin library). Both phage and Nunc plates were blocked for 1 hour at room temperature. Nunc plates were washed using a 96-well microplate washer (BioTek) with a PBS solution contain 0.1% Tween20 (Sigma Aldrich). 100 of blocked phage solution was added to each well of Nunc MaxiSorp plate and left shaking at room temperature for 1 hour. Plates were washed and dried as previously described. 100 of an Anti-M13-Horse radish peroxidase conjugated antibody (GE Healthcare) diluted (1:5,000) in a 1% BSA or milk solution was added to each well and left shaking at room temperature for 1 hour. Plates were washed again and 50 μL of TMB solution (Merck Millipore) was added to each well. Plates were left shaking for 10 minutes. Absorbance was measured at 630 nm and 490 nm. Binding signals were obtained where Absorbance at 630 nm was >3-times the signal upon irrelevant antigen.\n(§5) By monoclonal phage ELISA the following ultralong CDR-H3 sequences were identified as binders (OD>0.2 AU): […]", "values": [
      {"substance": "541 (TTVHQRTIKSGCPPGYKSGVDCSPGSECKWGCYAVDGRRYGGYGADSGVGSTYTHEYHVE; Anti-C5 ultralong CDR-H3) [compound 541]", "Specificity": "Human"},
      {"substance": "543 (TTVHQRTLKNRNCPDGYGYQRHCTVGEDCTDHCCDAYGLCTSYTYTYTYEWYVD; Anti-C5 ultralong CDR-H3) [compound 543]", "Specificity": "Human"},
      {"substance": "544 (TTVHQRTLKNRNCPDGYGYQRHCTVGEDCTDSCCDRYGLCTTSTETYTYELYVE; Anti-C5 ultralong CDR-H3) [compound 544]", "Specificity": "Human"},
      {"substance": "545 (TTVHQRTLKNRNRPEGYGYQRHCTVGEECTDSCCDRYGLCTTSTETYTYEWYVD; Anti-C5 ultralong CDR-H3) [compound 545]", "Specificity": "Human"},
      {"substance": "546 (TTVHQRTKKTCPLGYDLNDRCDHFNTCRVEECCKNGVVNAYGICEYAGGSATYTYEWYVE; Anti-C5 ultralong CDR-H3) [compound 546]", "Specificity": "Human"},
      {"substance": "547 (TTVHQRTLKNRNCPDGYGYQRHCTVGEDCTDSCCDRYGLCTTSTETYTYEFYVN; Anti-C5 ultralong CDR-H3) [compound 547]", "Specificity": "Human"},
      {"substance": "548 (TTVHQRTLKNRNCPDGYGYQRHCTVGEDCTDSCCDRYGLCTTSTETYTYEWYVD; Anti-C5 ultralong CDR-H3) [compound 548]", "Specificity": "Human"},
      {"substance": "549 (TTVHQRTLKNRNCPDGYGYQRHCTVGEDCTDSCCDRYGLCTTSTETYTYEWYVD; Anti-C5 ultralong CDR-H3) [compound 549]", "Specificity": "Human"},
      {"substance": "550 (TTVHQRTLHNRNCPDGYGYQRHCTVGEDCTERCCDNYGLCTSYTDTYTYEFYVN; Anti-C5 ultralong CDR-H3) [compound 550]", "Specificity": "Human"},
      {"substance": "559 (TTVHQRTAKRCPSNNEDATACRYSSVCGDYVCEGLSESYAQGWGACRRYACRDSYEWYVD; Anti-C5 ultralong CDR-H3) [compound 559]", "Specificity": "Human"},
      {"substance": "560 (TTVHQRTAKRCPSNNEDATACRYSSVCGDYVCEGLSESYAQGWGACRRYACRDSYEWYVD; Anti-C5 ultralong CDR-H3) [compound 560]", "Specificity": "Human"},
      {"substance": "561 (TTVHQQTNKRRQNCPDGYEYNGFCTPDGGCSRVSNWGWDRSCISPTYTYTYEWYVE; Anti-C5 ultralong CDR-H3) [compound 561]", "Specificity": "Human"},
      {"substance": "562 (TTVHQQTTKKSSCPDGYCDCNGCGYGNGCSRGGCFDFRLYSGYSADIVVSTTYTHDFYID; Anti-C5 ultralong CDR-H3) [compound 562]", "Specificity": "Human"},
      {"substance": "565 (TTVHQRTIKSGCPPGYKSGVDCSPGSECKWGCYAVDGRRYGGYGADSGVGSTYTHELYVE; Anti-C5 ultralong CDR-H3) [compound 565]", "Specificity": "Human"},
      {"substance": "566 (TTVVQRTKRTCPEGLVYNSDQSRCCAADSGVCWEYWRGERVTRGFTYEWYVD; Anti-C5 ultralong CDR-H3) [compound 566]", "Specificity": "Human"},
      {"substance": "567 (TTVHQRTTKRCPSNNEDATACRYSSVCGDYVCEGLSESYAQGWGACRRYACRDSYEWYVD; Anti-C5 ultralong CDR-H3) [compound 567]", "Specificity": "Human"},
      {"substance": "569 (TTVHQRTAKRCPSNNEEATACRYSSVCGDYVCEGLSESYAQGWGACRRYACRDSYEWYVD; Anti-C5 ultralong CDR-H3) [compound 569]", "Specificity": "Human"},
      {"substance": "570 (TTVHQRTIKSGCPPGYKSGVDCSPGSEYKWGCYAVDGRRYGGYGADSGVGSTYTHEFYVN; Anti-C5 ultralong CDR-H3) [compound 570]", "Specificity": "Human"},
      {"substance": "571 (TTVHQRTIKSGCPPGYKSGVDCSPGSECKWGCYAVDGRRYGGYGADSGVGSTYTHEWYVD; Anti-C5 ultralong CDR-H3) [compound 571]", "Specificity": "Human"}
    ]},
    {"biological_target": "C5 (Homo sapiens, UniProt P01031)", "assay": "Monoclonal phage screening ELISA, human C5", "format": "binding", "conditions": "knob domain of the anti-C5 ultralong CDR-H3", "method": "as §1, §2, §3, §4, §5", "values": [
      {"substance": "579 (HCSPGSDCSWGCYDRDDRRVDGAGADSGLGSTST; Anti-C5 ultralong CDR-H3 knob domain) [compound 579]", "Specificity": "Human"},
      {"substance": "580 (SCPDGYKDNRFCSPDGGCSAVSHWGWDSSCVS; Anti-C5 ultralong CDR-H3 knob domain) [compound 580]", "Specificity": "Human"},
      {"substance": "581 (HCSPGSDCSWGCYDKDDRRVDGAGVASGLGST; Anti-C5 ultralong CDR-H3 knob domain) [compound 581]", "Specificity": "Human"},
      {"substance": "582 (GCPPGYKSGVDCSPGSECKWGCYAVDGRRYGGYGADSGVGST; Anti-C5 ultralong CDR-H3 knob domain) [compound 582]", "Specificity": "Human"},
      {"substance": "583 (SCPDGYHFIEPCHSGLCWREGACNGDGICANGLGRCRTVSETST; Anti-C5 ultralong CDR-H3 knob domain) [compound 583]", "Specificity": "Human"},
      {"substance": "584 (GCPTGTVAGVHCSPGSDCSWGCYDKDDRRVDGAGAASGLGST; Anti-C5 ultralong CDR-H3 knob domain) [compound 584]", "Specificity": "Human"},
      {"substance": "585 (RCPDGCFLSSYCPVGYACSGFACCDCGGYDYAGGVRGGRCSVRSTT; Anti-C5 ultralong CDR-H3 knob domain) [compound 585]", "Specificity": "Human"},
      {"substance": "586 (NCPDGYKYNGFCTPDGGCSRVSSWGWDRSCISPT; Anti-C5 ultralong CDR-H3 knob domain) [compound 586]", "Specificity": "Human"},
      {"substance": "587 (GCPPGTVAGVHCSPGSDCSWGCYDRDDRRVDGAGADSGLGSTST; Anti-C5 ultralong CDR-H3 knob domain) [compound 587]", "Specificity": "Human"},
      {"substance": "588 (SCPDGYHFIEPCHSGLCWREGACNGDGICANGLGRCRTVSETST; Anti-C5 ultralong CDR-H3 knob domain) [compound 588]", "Specificity": "Human"},
      {"substance": "589 (GCPTGTVAGVHCSPGSDCSWGCYDADDRRVDGYGADSGVGSP; Anti-C5 ultralong CDR-H3 knob domain) [compound 589]", "Specificity": "Human"},
      {"substance": "590 (NCPDGYGYQRHCTVGEDCTDHCCDAYGLCTS; Anti-C5 ultralong CDR-H3 knob domain) [compound 590]", "Specificity": "Human"},
      {"substance": "591 (NCPDGYGYQRHCTVGEDCTDSCCDRYGLCTTSTET; Anti-C5 ultralong CDR-H3 knob domain) [compound 591]", "Specificity": "Human"},
      {"substance": "592 (HCTVGEECTDSCCDRYGLCTTSTET; Anti-C5 ultralong CDR-H3 knob domain) [compound 592]", "Specificity": "Human"},
      {"substance": "593 (NCPDGYGYQRHCTVGEDCTERCCDNYGLCTSYTDT; Anti-C5 ultralong CDR-H3 knob domain) [compound 593]", "Specificity": "Human"},
      {"substance": "600 (RCPSNNEDATACRYSSVCGDYVCEGLSESYAQGWGACRRYACRDS; Anti-C5 ultralong CDR-H3 knob domain) [compound 600]", "Specificity": "Human"},
      {"substance": "601 (NCPDGYEYNGFCTPDGGCSRVSNWGWDRSCISPT; Anti-C5 ultralong CDR-H3 knob domain) [compound 601]", "Specificity": "Human"},
      {"substance": "602 (SCPDGYCDCNGCGYGNGCSRGGCFDFRLYSGYSADIVVSTT; Anti-C5 ultralong CDR-H3 knob domain) [compound 602]", "Specificity": "Human"},
      {"substance": "603 (SCPDGWGHSDDCNCACSANAYACCKRDWLLPGPSCECSTYCVS; Anti-C5 ultralong CDR-H3 knob domain) [compound 603]", "Specificity": "Human"},
      {"substance": "604 (SCPDGWSDCHGSCDGVGCTGSDCVRYNARGYGRHACSG; Anti-C5 ultralong CDR-H3 knob domain) [compound 604]", "Specificity": "Human"},
      {"substance": "605 (GCPPGYKSGVDCSPGSECKWGCYAVDGRRYGGYGADSGVGST; Anti-C5 ultralong CDR-H3 knob domain) [compound 605]", "Specificity": "Human"}
    ]}
  ]
}
